These results are taken from patent publication US20050287148A1.

The target in one experiment is the best Ab2. As to the kind of experiment: unlabeled 14G2a competing with plate-bound 14G2a for 125I-labeled Ab2.
Experiment [1] deals with monoclonal anti-GD2 antibody 14G2a. The experiment in a line: competition RIA, Ab2 mixed with 125I-14G2a, M21/P6 cell monolayer.
Experiment [2] shares this target. The experiment in a line: competition assay, Ab2 against 14G2a binding to GD2-expressing M21/P6 cells.
Experiment [3] has the same target. The experiment in a line: competition RIA, 5 µl Ab2 hybridoma culture supernatant, 125I-14G2a on GD2-positive M21/P6 cells.

The term % inhibition denotes the percentage by which the read-out fell short of the control. The low end stands for a response near the control, the high end for a response far below the control. On to monoclonal anti-GD2 antibody 14G2a, for which, in the experiment with the best Ab2, the % inhibition is over 90%.

B1: monoclonal anti-idiotype antibody 1A7 (antibody, V domains shown)
VH: QVQVKESGPFLVPPSQSLSITCTVSGFSLTTYGVSWIRQPPGKGLEWLGAIWGDGTTNYHSALISRLSISKDNSKSQVFLKLNSLQTDDTATYYCAKLGNYDALDYWGQGTSVTVSS
VL: DVFMTQTPLSLPVSLGDQASISCRSSQSIVHSNGNTYLEWYLQKPGQSPNLLIYFVSNRFSGVPDRFSGSGSGTDFTLKISRVEAEDLGVYYCFQGSHVPWTFGGGTKLEIKR
For B1, in experiment [1], the lowest amount that inhibits 14G2a binding to GD2 expressing cells came out at 25 ng. This molecule also showed a % inhibition of binding of 14G2a to M21/P6 cells in experiment [2] of over 75%. This molecule gave a % inhibition of binding of radiolabeled 14G2a to M21/P6 cells in experiment [3] of over 70%.
